From the supplement of paper PMC7125110
± gives the standard error. For some of these results: This sample holds only a part of the variants without activity.

B1: glmS ribozyme (parent)
chain: AUAAAAGCGCCAGAACUACAGAAAUGUAGUUGACGAGGAGGAGGUUUAUCGAAUUUUCGGCGGAUGCCUCCAAA

Key:
Conditions in all cases: with glucosamine-6-phosphate
[1] = variants of: B1; experiment: kcat; higher = faster cleavage; RNA array
In short: (§1)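 On sequenced MiSeq chips, barcoded ribozyme variants were made in situ by E. coli RNA polymerase and followed at 37 °C through a hybridised Cy3 probe. Glucosamine-6-phosphate was flowed in at 40 μM to 10 mM in HEPES/KCl/Mg(OAc)2 buffer. Exponential fits to normalised per-tile medians gave kobs, and weighted Michaelis–Menten fits gave kcat and KM.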

[2] = variants of: B1; experiment: KM; higher = weaker cofactor use; RNA array
In short: as §1

[3] = variants of: B1; experiment: self-cleavage kobs at 2500 uM GlcN6P; higher = faster cleavage; RNA array
In short: as §1

[4] = variants of: B1; experiment: self-cleavage kobs at 10000 uM GlcN6P; higher = faster cleavage; RNA array
In short: as §1

[5] = variants of: B1; experiment: self-cleavage kobs at 640 uM GlcN6P; higher = faster cleavage; RNA array
In short: as §1

[6] = variants of: B1; experiment: self-cleavage kobs at 160 uM GlcN6P; higher = faster cleavage; RNA array
In short: as §1

[7] = variants of: B1; experiment: self-cleavage kobs at 40 uM GlcN6P; higher = faster cleavage; RNA array
In short: as §1

| Variant | kcat [1] [s⁻¹] | KM [2] [µM] | self-cleavage kobs at 2500 uM GlcN6P [3] [s⁻¹] | self-cleavage kobs at 10000 uM GlcN6P [4] [s⁻¹] | self-cleavage kobs at 640 uM GlcN6P [5] [s⁻¹] | self-cleavage kobs at 160 uM GlcN6P [6] [s⁻¹] | self-cleavage kobs at 40 uM GlcN6P [7] [s⁻¹] |
| --- | --- | --- | --- | --- | --- | --- | --- |
| C11U A52U | 5.56e-05 ± 4.4e-06 | 1620 ± 690 | 3.57e-05 ± 1.8e-05 | 4.77e-05 ± 8.4e-06 | – | – | – |
| C11U A52G | 0.000164 ± 8e-06 | 1690 ± 270 | 0.000109 ± 1.8e-05 | 0.000139 ± 1.1e-05 | 4.15e-05 ± 1e-05 | – | – |
| G62U U69A | 2.59e-05 ± 3.9e-06 | – | – | – | – | – | – |
| G40A C50G | < 1e-05 | – | – | – | – | – | – |
| A48C U54A | 0.000452 ± 4.8e-05 | 1720 ± 350 | 0.000342 ± 8.9e-05 | 0.000371 ± 6.6e-05 | 0.000118 ± 2.2e-05 | 3.98e-05 ± 2e-05 | – |
| G13C U47A G59U C67G | 1.81e-05 ± 2.9e-06 | – | – | – | < 1e-05 | – | – |
| U57G C61G | 1.3e-05 ± 4.8e-06 | – | – | – | – | – | – |
| G43C A53G C68U | 0.00152 ± 0.00074 | – | 0.000879 ± 0.00022 | – | 0.000435 ± 0.00011 | 0.000102 ± 2.7e-05 | 5.01e-05 ± 1.4e-05 |
| G38U G66C C71U | 1.04e-05 ± 1e-06 | – | – | – | – | – | – |
| A15U U47A | 0.00433 ± 0.0014 | 1960 ± 890 | 0.00263 ± 0.00057 | 0.00356 ± 0.0009 | 0.000846 ± 0.00036 | 0.000273 ± 6.7e-05 | 0.00015 ± 3.6e-05 |
| G29A G38A C67A | 1.79e-05 ± 4.1e-06 | – | – | – | – | – | – |
| A12C U30C C71U | 0.00195 ± 0.00038 | 3540 ± 1200 | 0.000922 ± 0.00025 | 0.00141 ± 0.00029 | 0.000258 ± 8.1e-05 | – | 3.06e-05 ± 1.5e-05 |
| A39C U47G | 0.00107 ± 0.00043 | – | 0.000425 ± 0.0001 | 0.00109 ± 0.0002 | 0.000286 ± 5.5e-05 | – | – |
| U56C C67A | 4.27e-05 ± 1.5e-06 | 701 ± 180 | 3.57e-05 ± 1.4e-05 | 3.95e-05 ± 7.5e-06 | – | – | – |
| C16G A33G | < 1e-05 | – | – | – | – | – | < 1e-05 |
| U49A A53G | 2.25e-05 ± 2.1e-06 | 3410 ± 1000 | – | – | – | – | – |
| C16A A64U | < 1e-05 | – | – | – | – | < 1e-05 | < 1e-05 |
| U31C C71A | 0.000686 ± 0.00019 | 1470 ± 630 | 0.000669 ± 9.6e-05 | 0.00057 ± 7.8e-05 | 0.00018 ± 1.9e-05 | 7.42e-05 ± 8.6e-06 | 3.6e-05 ± 1.1e-05 |
| A6U A42G | 0.000505 ± 0.00011 | 3730 ± 1400 | 0.000156 ± 5.1e-05 | 0.00038 ± 6e-05 | 8.54e-05 ± 1.6e-05 | – | – |
| U49G U55A | 0.00113 ± 0.0001 | 2740 ± 370 | 0.000539 ± 5.5e-05 | 0.000891 ± 0.00013 | 0.000213 ± 2.8e-05 | 6.19e-05 ± 9.7e-06 | – |
